Experiment [1] concerns the target T1, CD3 on the surface of primary T cells (human, UniProt P07766 23-207).
T1 construct: whole, on cells; CD3 is a multimeric complex (ε, γ, δ, ζ chains) with the TCR; In the reporter assays CD3 stood on Jurkat cells; also called CD3ε
Description: flow cytometry on isolated T cells. As to the method:
(§1) Binding of exemplary multispecific constructs containing an antigen-binding domain directed against B7H3 were assessed for binding to B7H3 positive A375 tumor cells or primary T-cells. The constructs were generated containing antigen-binding domain(s) that were either sdAbs or a FABs, and that were positioned either only N-terminal to the Fc or both N-terminal to the Fc and C-terminal to the anti-CD3 binding domain (see FIGS. 3A and 3C and Table E1.1). Among the various formats of constructs tested included: sdAb-Fc-dsFV-sdAb (cx3072, cx5952) sdAb-Fc-FV (cx6079), sdAb-Fc-dsFV (cs6080, cx6081), MAB-FV (cx5067) and MAB-dsFV (cx6083, cx6084), where the FV represents the anti-CD3 binding domain composed of VH and VL domain pairs and “ds” notes disulfide stabilized via an engineered interdomain disulfide bond.
(§2) Binding was assessed as described above via flow cytometry using a fluorophore-conjugated anti-human Fc secondary antibody. cx3072 bound to A375 cells with high affinity (FIG. 6A) but not to isolated T-cells (FIG. 6B). […]

The target of another experiment is T2, B7H3 (CD276) (human, UniProt Q5ZPR3 29-534).
T2 construct: whole, on cells
T2 sequence (looked up): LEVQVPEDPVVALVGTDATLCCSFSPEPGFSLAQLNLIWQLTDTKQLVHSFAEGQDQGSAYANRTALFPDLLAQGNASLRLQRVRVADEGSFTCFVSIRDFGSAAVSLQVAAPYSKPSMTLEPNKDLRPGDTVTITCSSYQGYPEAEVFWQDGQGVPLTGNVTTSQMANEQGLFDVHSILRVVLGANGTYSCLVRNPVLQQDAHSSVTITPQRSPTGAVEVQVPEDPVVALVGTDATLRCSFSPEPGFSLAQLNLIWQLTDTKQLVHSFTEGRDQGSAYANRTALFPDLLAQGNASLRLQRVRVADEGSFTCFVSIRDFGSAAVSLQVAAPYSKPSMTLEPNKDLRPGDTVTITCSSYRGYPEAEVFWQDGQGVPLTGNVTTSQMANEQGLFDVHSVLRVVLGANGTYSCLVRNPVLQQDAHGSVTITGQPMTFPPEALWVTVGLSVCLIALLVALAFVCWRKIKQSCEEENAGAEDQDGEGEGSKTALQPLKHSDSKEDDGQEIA
Description: flow cytometry on A375 cells. As to the method:
as §1, §2

Experiment [2] addresses T3, Folate Receptor Alpha (FRα) (UniProt P15328 25-234, limits assumed).
T3 construct: whole, on cells; also called FR-Alpha
Description: flow cytometry on Ovcar-5 cells, anti-human IgG Fc secondary. As to the method:
(§3) Binding of exemplary multispecific polypeptide constructs of the disclosure containing an antigen-binding domain directed against Folate Receptor Alpha (FRα) to CD3 on the surface of primary T cells and to FRα expressing cells (Ovcar-5) was assessed by flow cytometry. The tumor antigen binding domains of the tested constructs bind the Folate Receptor Alpha (FRα), which is not expressed on the primary T cells. The tested constructs included cx1356 and cx681, containing a non-cleavable linker of 3 amino acids in cx1356 or a non-cleavable linker of 18 amino acids in cx681 (see FIG. 2B and Table E1.1).
(§4) For the studies described in FIGS. 5A and 5B, 100 nM of each construct, cx1356 or cx681 was used and assessed for binding to either the Ovcar-5 cells or primary T-cells. An anti-CD3 antibody was included as a control. A titration of the constrained CD3 engaging constructs on either FRα expressing cells (Ovcar-5; FIG. 5C) or isolated primary T-cells (FRα negative; FIG. 5D), was conducted to assess binding. Bound constructs were detected using fluorophore-conjugated anti-human IgG Fc secondary antibody.

For experiment [3], the target named is T1, CD3 on the surface of primary T cells. Description: flow cytometry on isolated primary T cells, anti-human IgG Fc secondary. As to the method:
as §3, §4
A general note: Flow cytometry measures light scatter and fluorescence of single cells or particles in a stream.

T1 sequence (P07766 23-207): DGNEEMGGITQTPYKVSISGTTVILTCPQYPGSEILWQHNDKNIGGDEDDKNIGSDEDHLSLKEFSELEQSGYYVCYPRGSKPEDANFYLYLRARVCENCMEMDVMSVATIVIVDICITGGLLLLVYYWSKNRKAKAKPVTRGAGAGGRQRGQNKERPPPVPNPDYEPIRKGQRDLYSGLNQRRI
T3 sequence (P15328 25-234 limits assumed): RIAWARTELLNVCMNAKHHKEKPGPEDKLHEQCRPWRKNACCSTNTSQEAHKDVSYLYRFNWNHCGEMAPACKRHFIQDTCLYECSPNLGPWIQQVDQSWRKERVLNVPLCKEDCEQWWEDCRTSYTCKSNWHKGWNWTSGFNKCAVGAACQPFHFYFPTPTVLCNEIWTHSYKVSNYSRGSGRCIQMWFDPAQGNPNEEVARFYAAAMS

B1: cx5952 (bispecific antibody)
chain 1: EVQLVESGGGEVQPGGSLRLSCAASGFSFSSNVMMWVRQAPGKGLEWVSTIYSSGTGTFYAESVKGRFTISRDNAKNTLYLQMSSLRPEDTAVYYCATSGPVRGWGPRSQGTLVTVKPPGGGGDKTHTCPPCPAPGGPSVFLFPPKPKDTLMISRTPEVTCVVVDVSHEDPEVKFNWYVDGVEVHNAKTKPREEQYNSTYRVVSVLTVLHQDWLNGKEYKCKVSNKALPAPIEKTISKAKGQPREPQVYTLPPCRDELTKNQVSLWCLVKGFYPSDIAVEWESNGQPENNYKTTPPVLDSDGSFFLYSKLTVDKSRWQQGNVFSCSVMHEALHNHYTQKSLSLSPGGGGGGSGGGGGSGGGGGSEVQLVESGGGLVQPGGSLRLSCAASGFTFNTYAMNWVRQAPGKCLEWVARIRSKYNNYATYYADSVKGRFTISRDDAKNTLYLQMSSLRAEDTAVYYCVRHGNFGNSYVSWFAYWGQGTLVTVKPGGGGEVQLVESGGGEVQPGGSLRLSCAASGFTFSSYHMSWFRQAPGKQRELVATSHHGGTTNYAGSVKGRFTISRDNAKNTVYLQMNTLRAEDTAVYYCKADHGYQGRGYWGQGTLVTVKP
chain 2: DKTHTCPPCPAPGGPSVFLFPPKPKDTLMISRTPEVTCVVVDVSHEDPEVKFNWYVDGVEVHNAKTKPREEQYNSTYRVVSVLTVLHQDWLNGKEYKCKVSNKALPAPIEKTISKAKGQPREPQVCTLPPSRDELTKNQVSLSCAVKGFYPSDIAVEWESNGQPENNYKTTPPVLDSDGSFFLVSKLTVDKSRWQQGNVFSCSVMHEALHNRYTQKSLSLSPGGGGGGSGGGGGSGGGGGSQAVVTQEPSLTVSPGGTVTLTCGSSTGAVTTSNYANWVQQKPGQAFRGLIGGTNKRAPGVPARFSGSLLGGKAALTISGAQPEDEADYYCALWYSNHWVFGCGTKLEIK
notes: Heterodimer of chain 1 and chain 2; anti-CD3 Fv disulfide-stabilized (VH G44C / VL G100C); also called B7H3-targeting constrained CD3 engaging construct; sdAb-Fc-dsFV-sdAb
In the case of B1, the binding result in experiment [1] is listed as “no binding”.

B2: cx6079 (bispecific antibody)
chain 1: EVQLVESGGGEVQPGGSLRLSCAASGFSFSSNVMMWVRQAPGKGLEWVSTIYSSGTGTFYAESVKGRFTISRDNAKNTLYLQMSSLRPEDTAVYYCATSGPVRGWGPRSQGTLVTVKPPGGGGDKTHTCPPCPAPPVAGPSVFLFPPKPKDTLMISRTPEVTCVVVDVKHEDPEVKFNWYVDGVEVHNAKTKPREEEYNSTYRVVSVLTVLHQDWLNGKEYKCKVSNKALPAPIEKTISKAKGQPREPQVYTLPPSREEMTKNQVSLTCDVSGFYPSDIAVEWESDGQPENNYKTTPPVLDSDGSFFLYSKLTVDKSRWEQGDVFSCSVMHEALHNHYTQKSLSLSPGKGGGGSGGGGSGGGGSEVQLVESGGGLVQPGGSLRLSCAASGFTFSTYAMNWVRQAPGKGLEWVGRIRSKYNNYATYYADSVKGRFTISRDDSKNTLYLQMNSLRAEDTAVYYCVRHGNFGDSYVSWFAYWGQGTLVTVSS
chain 2: EVQLVESGGGEVQPGGSLRLSCAASGFSFSSNVMMWVRQAPGKGLEWVSTIYSSGTGTFYAESVKGRFTISRDNAKNTLYLQMSSLRPEDTAVYYCATSGPVRGWGPRSQGTLVTVKPPGGGGDKTHTCPPCPAPPVAGPSVFLFPPKPKDTLMISRTPEVTCVVVDVKHEDPEVKFNWYVDGVEVHNAKTKPREEQYNSTYRVVSVLTVLHQDWLNGKEYKCKVSNKALPAPIEKTISKAKGQPREPQVYTLPPSREQMTKNQVKLTCLVKGFYPSDIAVEWESNGQPENNYKTTPPVLDSDGSFFLYSKLTVDKSRWQQGNVFSCSVMHEALHNHYTQKSLSLSPGKGGGGSGGGGSGGGGSQAVVTQEPSLTVSPGGTVTLTCGSSTGAVTTSNYANWVQQKPGKSPRGLIGGTNKRAPGVPARFSGSLLGGKAALTISGAQPEDEADYYCALWYSNHWVFGGGTKLTVL
notes: Heterodimer of chain 1 and chain 2; anti-CD3 Fv not disulfide-stabilized; two identical B7H3 sdAbs, both N-terminal to the Fc; also called B7H3-targeting constrained CD3 engaging construct; sdAb-Fc-FV
With B2, the binding result in experiment [1] is “no binding”; in the experiment with B7H3 (CD276), “binds”.

B3: cx681 (bispecific antibody)
chain 1: not shown
chain 2: QLQLQESGGGLVQPGGSLRLSCAASGFTLDNYAIGWFRQAPGKEREGVSCISSSDGSTYYADSVKGRFTISRNNAKGTVYLLMNSLKPEDTAVYYCATELVPACTYSNGRGPLDGMDYWGKGTQVTVKPPGGGGDKTHTCPPCPAPELLGGPSVFLFPPKPKDTLMRSRTPEVTCVVVDVSHEDPEVKFNWYVDGVEVHNAKTKPREEQYNSTYRVVSVLTVLHQDWLNGKEYKCKVSNKALPAPIEKTISKAKGQPREPQVCTLPPSRDELTKNQVSLSCAVKGFYPSDIAVEWESNGQPENNYKTTPPVLDSDGSFFLVSKLTVDKSRWQQGNVFSCSVMHEALHNHYTQKSLSLSPGGSGGGGSGGGGSGGGGSQAVVTQEPSLTVSPGGTVTLTCGSSTGAVTTSNYANWVQQKPGKSPRGLIGGTNKRAPGVPARFSGSLLGGKAALTISGAQPEDEADYYCALWYSNHWVFGCGTKLTVLGGGGEVQLLESGGGEVQPGGSLRLSCAASGSIFSIDATAWYRQAPGKQRELVAIITSSGSTNYPESVKGRFTISRDNAKNTVYLQMSSLRAEDTAVYYCNAITRYGGSTYDFWGQGTLVTVKP
notes: Heterodimer of chain 1 and chain 2; anti-CD3 Fv disulfide-stabilized (VH G44C / VL G100C); the shortest entry is written; also called FRα-targeting constrained CD3 engaging construct; gs18 linker
With B3, the binding result in experiment [2] was “binds”; in experiment [3], “no binding (tested: 100 nM)”.

B4: cx1356 (bispecific antibody)
chain 1: not shown
chain 2: QLQLQESGGGLVQPGGSLRLSCAASGFTLDNYAIGWFRQAPGKEREGVSCISSSDGSTYYADSVKGRFTISRNNAKGTVYLLMNSLKPEDTAVYYCATELVPACTYSNGRGPLDGMDYWGKGTQVTVKPPGGGGDKTHTCPPCPAPELLGGPSVFLFPPKPKDTLMRSRTPEVTCVVVDVSHEDPEVKFNWYVDGVEVHNAKTKPREEQYNSTYRVVSVLTVLHQDWLNGKEYKCKVSNKALPAPIEKTISKAKGQPREPQVCTLPPSRDELTKNQVSLSCAVKGFYPSDIAVEWESNGQPENNYKTTPPVLDSDGSFFLVSKLTVDKSRWQQGNVFSCSVMHEALHNHYTQKSLSLSPGGSQAVVTQEPSLTVSPGGTVTLTCGSSTGAVTTSNYANWVQQKPGKSPRGLIGGTNKRAPGVPARFSGSLLGGKAALTISGAQPEDEADYYCALWYSNHWVFGCGTKLTVLGGGGEVQLLESGGGEVQPGGSLRLSCAASGSIFSIDATAWYRQAPGKQRELVAIITSSGSTNYPESVKGRFTISRDNAKNTVYLQMSSLRAEDTAVYYCNAITRYGGSTYDFWGQGTLVTVKP
notes: Heterodimer of chain 1 and chain 2; anti-CD3 Fv disulfide-stabilized (VH G44C / VL G100C); the shortest entry is written; also called FRα-targeting constrained CD3 engaging construct; gs3 linker
As for B4, the binding result is “binds” in experiment [2] and “no binding (tested: 100 nM)” in experiment [3].
